The supplement of paper PMC11865577

What was measured:
Assay in all cases: pull-down binding Z-score (relative to library population); higher = stronger binding
[1] = system: TO-N3-2 (biotin conjugate); conditions: RNA library: Library-2
In short: (§1)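 A heat-folded, dye-end-labelled (Cy5 or Cy3) RNA library (1 μg, phosphate/NaCl/KCl buffer) was exposed for 60 min at 25 °C to streptavidin beads holding 100 pmol of biotin-conjugated small molecule. RNA retained on the beads was eluted in hot SDS and hybridised to a DNA barcode microarray for 20 h at 55.5 °C. Binding scores were Z-scores against the library mean and standard deviation, calculated after subtracting beads alone and taking trimmed means of replicate probes.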

[2] = system: G-clamp-N3 (biotin conjugate); conditions: RNA library: Library-1 (pre-miRNA loops + repeats)
In short: as §1

[3] = system: TO-3-N3 (biotin conjugate); conditions: RNA library: Library-2
In short: as §1

TO-N3 (biotin conjugate) = conditions: RNA library: Library-2
In short: as §1

[4] = system: TO-3-N3-2 (biotin conjugate); conditions: RNA library: Library-2
In short: as §1

Sequence | pull-down binding Z-score [1] | pull-down binding Z-score [2] | pull-down binding Z-score [3] | pull-down binding Z-score (TO-N3 (biotin conjugate)) | pull-down binding Z-score [4]
AAAACUUUCAUCCAAGUCAUU [hsa-mir-378d-2] | -0.609 | -0.902 | 0.382 | 0.164 | -0.238
AAAAUGUUUGUCAUAAACCGUUUU [hsa-mir-335] | -0.934 | -0.914 | -0.185 | -0.158 | -0.302
AAAAUUACUUUUGGUAAAUACAGUUUU [hsa-mir-559] | -1.04 | -0.546 | -0.101 | -0.344 | 0.00825
AAAAUUCAUGGCCUACAGCUGCCUCUUGCCAAACUGCACUGGAUUUU [hsa-mir-5010] | 0.111 | -1.45 | -0.25 | -0.482 | -0.176
AAACGUGCUCAGUGUCUUUAUAACAGGAAAGCCGUAAAC [hsa-mir-1272] | 0.894 | -0.626 | 0.0446 | 0.528 | 0.284
AAAGAGGUGUUUCUACUCCAU [hsa-mir-3690-1_3690-2] | -0.235 | -1.18 | -0.497 | -0.517 | -0.0114
AAAGCCAGGGACCCUGAGAGGCUUU [hsa-mir-6885] | 1.24 | 3.29 | 0.0246 | 0.556 | 0.0899
AAAUAAAAGAUGGAGUCGUUUGACGUCUUUUAACACCCUUU [hsa-mir-8055] | -0.866 | -0.175 | -0.623 | -0.706 | -0.1
AAAUAAGAGGCUAGGAUUGCCUCUUAUUU [hsa-mir-3201] | -1.57 | 0.838 | -0.688 | -1.18 | -0.362
AAAUAAGCUCCAUAUCAAUGAGAAUUUCAAUGGGAUUAUGUG [hsa-mir-4791] | 0.0926 | -1.06 | -0.569 | -0.415 | -0.0328
AAAUAGUUUCUAUCAAAAUAGUUU [hsa-mir-3668] | -1.14 | -1.13 | -0.791 | -0.931 | -0.362
AAAUCCCGUUAAUAAGUAAGAGGAUUU [hsa-mir-2113] | 0.758 | 0.525 | 0.503 | 0.817 | 0.143
AAAUCCGUGUUUGGACGCUUCUGGUA [hsa-mir-3936] | 0.681 | -0.453 | 0.678 | 0.923 | 0.653
AAAUGAGAGUUAGCCAGGAGCUUUGCAUACUCA [hsa-mir-6801] | 0.66 | -1.22 | -0.384 | -0.00733 | -0.0024
AAAUUGCAGACACUAGGACCAUGUCUUGGUUUUUGCAAUAAUG [hsa-mir-1248] | -0.641 | 0.0385 | -0.228 | -0.189 | -0.133
AACAACAGCAUCAGAAGCAACAUCAGCUUUAGUU [hsa-mir-569] | 1 | -1.03 | 0.728 | 0.9 | 0.364
AACACCCAUCCCAGGAUUGCUGAUGGGUGUU [hsa-mir-5705] | -0.282 | -0.7 | -0.618 | -0.668 | -0.428
AACAGCAGGAUUGGCUGUAGCUGUU [hsa-mir-2117] | 0.369 | 0.593 | 0.357 | 0.185 | -0.324

Sequence | pull-down binding Z-score [1] | pull-down binding Z-score [2] | pull-down binding Z-score [3] | pull-down binding Z-score (TO-N3 (biotin conjugate)) | pull-down binding Z-score [4]
AACAGCUUUGCGAAGUGUUGUU [hsa-mir-4425] | -0.553 | -0.651 | 0.104 | -0.113 | -0.137
AACAGGACCUGUGCUCACUGGGGCCUGCA [hsa-mir-6797] | 1.55 | -0.344 | 0.406 | 1.02 | 0.298
AACAUACAUUUGUCUUGGUGUGUU [hsa-mir-4684] | -1.35 | 3.35 | -1.01 | -1.44 | -0.744
AACGUUAUGUGUGGUCUUUAACCUGUU [hsa-mir-6755] | -0.171 | -1.32 | -0.152 | -0.139 | 0.16
AACUCCUGCGAGUCCCUGGAGUU [hsa-mir-1258] | -0.163 | 0.214 | 0.16 | -0.0874 | -0.146
AACUCUGUUGAAUAUAAAUUGGAAUU [hsa-mir-367] | -0.424 | -0.214 | -0.404 | -0.572 | 0.00577
AACUGUGCGGCCGGCCACACCGUCACACCGGGU [hsa-mir-8083] | 1.28 | -0.324 | 1.14 | 1.44 | 0.611
AAGACACUAUCUGACAACAACAGGGCUCUU [hsa-mir-550b-2] | 0.234 | 0.0423 | 0.681 | 0.93 | 0.201
AAGACACUAUCUUACAACAACAGGGCUCUU [hsa-mir-550b-1] | 0.298 | 0.13 | 1.17 | 1.01 | 0.281
AAGAGGAGGUGGUUGUUUUCCUCCUCUU [hsa-mir-627] | 1.15 | -0.0833 | 0.432 | 0.944 | 0.625
AAGAGGUAAGAAGAAGUGAAGCCCUCUU [hsa-mir-4778] | 0.281 | -0.836 | -0.393 | -0.292 | 0.35
AAGCAGGGUCGGGCCUGGUU [hsa-mir-7641-2] | 0.499 | 0.553 | 0.415 | 0.442 | 0.0218
AAGCAGGGUUGGGCCUGGUU [hsa-mir-7641-1] | 0.549 | -1.23 | -0.192 | -0.00685 | -0.112
AAGCCCUACGAGAAACUGGGGUUUCUGGA [hsa-mir-765] | 0.503 | -1.01 | 0.529 | 0.686 | 0.277
AAGCUCUUGCAGUAGGUUU [hsa-mir-1206] | -0.369 | 0.242 | -0.604 | -0.46 | -0.358
AAGCUGACAGACAGCUG [hsa-mir-5691] | 0.218 | 1.16 | -0.057 | 0.144 | -0.398
AAGCUGUGUGUGUCCAGC [hsa-mir-4732] | 0.52 | -0.258 | 0.132 | 0.33 | -0.101
AAGGCCAGGACCCGCUGACCCAU [hsa-mir-6872] | 0.567 | -1.17 | 0.148 | 0.411 | -0.0792
